This note sets out measurements from PMC6237600.

The target of the series is c-met receptor tyrosine kinase (native, on MM cell surface) (Homo sapiens) (UniProt P08581). The series is described as follows: flow cytometry cell binding. Particulars: MM.1S cells; library signal subtracted; 5 mM MgCl2; 1x PBS, 4.5 g/L glucose, 5 mM MgCl2, 0.1 mg/mL yeast tRNA, 1 mg/mL BSA, 4 C, 30 min; 3e5 cells in 200 uL; pH not stated. (In general: In flow cytometry, cells or beads pass a laser one at a time.)
Chain of c-met receptor tyrosine kinase (native, on MM cell surface) (Homo sapiens) (P08581 25-1390): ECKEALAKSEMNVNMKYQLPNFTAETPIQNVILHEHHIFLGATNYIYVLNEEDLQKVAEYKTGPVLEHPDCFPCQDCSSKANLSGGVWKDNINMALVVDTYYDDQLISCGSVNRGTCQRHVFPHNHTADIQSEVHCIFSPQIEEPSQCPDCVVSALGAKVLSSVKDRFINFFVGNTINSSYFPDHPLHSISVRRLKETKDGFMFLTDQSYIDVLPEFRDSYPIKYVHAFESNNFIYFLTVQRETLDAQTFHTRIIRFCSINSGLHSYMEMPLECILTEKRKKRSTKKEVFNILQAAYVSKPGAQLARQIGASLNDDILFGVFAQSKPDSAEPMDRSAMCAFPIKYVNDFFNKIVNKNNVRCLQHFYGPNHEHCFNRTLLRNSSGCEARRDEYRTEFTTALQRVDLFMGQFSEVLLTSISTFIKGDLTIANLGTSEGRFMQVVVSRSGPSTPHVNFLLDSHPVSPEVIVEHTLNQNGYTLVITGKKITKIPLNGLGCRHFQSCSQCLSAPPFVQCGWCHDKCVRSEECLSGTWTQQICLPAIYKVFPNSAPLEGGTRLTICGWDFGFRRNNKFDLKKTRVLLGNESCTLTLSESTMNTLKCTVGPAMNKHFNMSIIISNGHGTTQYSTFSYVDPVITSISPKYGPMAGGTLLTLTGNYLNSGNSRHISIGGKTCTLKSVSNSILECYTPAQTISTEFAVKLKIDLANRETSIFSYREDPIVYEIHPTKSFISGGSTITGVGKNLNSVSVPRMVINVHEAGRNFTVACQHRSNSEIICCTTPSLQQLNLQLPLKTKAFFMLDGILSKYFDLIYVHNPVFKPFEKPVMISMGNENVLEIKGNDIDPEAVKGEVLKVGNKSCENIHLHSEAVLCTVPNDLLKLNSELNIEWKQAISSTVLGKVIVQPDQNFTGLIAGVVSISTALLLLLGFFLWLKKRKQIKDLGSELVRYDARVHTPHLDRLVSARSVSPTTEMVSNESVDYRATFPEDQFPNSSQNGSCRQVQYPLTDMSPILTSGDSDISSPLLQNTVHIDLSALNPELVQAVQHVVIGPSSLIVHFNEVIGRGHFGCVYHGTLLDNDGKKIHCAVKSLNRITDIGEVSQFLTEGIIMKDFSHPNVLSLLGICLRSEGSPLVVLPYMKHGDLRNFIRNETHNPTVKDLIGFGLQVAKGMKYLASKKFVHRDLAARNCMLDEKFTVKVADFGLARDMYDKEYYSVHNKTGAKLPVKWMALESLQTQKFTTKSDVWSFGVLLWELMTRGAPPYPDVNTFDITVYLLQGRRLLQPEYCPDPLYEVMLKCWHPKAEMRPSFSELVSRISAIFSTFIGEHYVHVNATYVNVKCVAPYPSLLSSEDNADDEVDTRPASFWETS

Take “ATCAGGCTGGATGGTAGCTCGGTCGGGGTGGGTGGGTTGGCAAGTCTGAT [SL1]”: the Kd (as a rule, the free concentration of one partner at which half of the binding sites on the other are occupied at equilibrium, for simple one-to-one binding) is 136 nM.
